Target: the molecule itself
Experiment: crystal structure; apo-hIRE1 (no nucleotide), hanging-drop vapor diffusion, 18-20% PEG3350, 0.2 M sodium malonate, Bis-Trispropane pH 6.5, 18°C; 2 molecules in the asymmetric unit

B1: cytoplasmic region of human IRE1 (residues 547-977) (domain or fragment, UniProt O75460 547-977, looked up)
chain: GSSPSLEQDDGDEETSVVIVGKISFCPKDVLGHGAEGTIVYRGMFDNRDVAVKRILPECFSFADREVQLLRESDEHPNVIRYFCTEKDRQFQYIAIELCAATLQEYVEQKDFAHLGLEPITLLQQTTSGLAHLHSLNIVHRDLKPHNILISMPNAHGKIKAMISDFGLCKKLAVGRHSFSRRSGVPGTEGWIAPEMLSEDCKENPTYTVDIFSAGCVFYYVISEGSHPFGKSLQRQANILLGACSLDCLHPEKHEDVIARELIEKMIAMDPQKRPSAKHVLKHPFFWSLEKQLQFFQDVSDRIEKESLDGPIVKQLERGGRAVVKMDWRENITVPLQTDLRKFRTYKGGSVRDLLRAMRNKKHHYRELPAEVRETLGSLPDDFVCYFTSRFPHLLAHTYRAMELCSHERLFQPYYFHEPPEPQPPVTPDAL
  stoichiometry N: 2

From publication PMC4536996, “Molecular mechanisms of human IRE1 activation through dimerization and ligand binding” (Oncotarget, 2015)
